According to publication PMC10511788, “Solution structure of the HOIL-1L NZF domain reveals a conformational switch regulating linear ubiquitin affinity” (The Journal of Biological Chemistry, 2023):

Molecular target: T1, M1-linked di-ubiquitin (UniProt P0CG48 1-76; P0CG48 1-76)
T1 construct: ubiquitin, distal (N-terminal) moiety, M1-G76, its G76 joined by a peptide bond to M1 of the next moiety; ubiquitin, proximal (C-terminal) moiety, M1-G76, with the free C-terminal carboxylate; Two ubiquitin units head to tail on one chain; also called linear di-Ub; linear (head-to-tail) di-Ub
Experiment: ITC; 298 K, MicroCal iTC200; linear di-Ub (1 mM) in the syringe, HOIL-1L NZF (100 uM) in the cell (several experiments at half of these); 20 mM HEPES pH 7.0, 50 mM sodium chloride, 1 mM TCEP; one set of sites model; three independent experiments
Settings: both partners purified

B1: mouse HOIL-1L NZF domain (residues Pro192-Gln250) T207D (domain or fragment)
chain: GPLGSPEPVGWQCPGCTFINKPDRPGCEMCCRARPETYQIPASYQPDEEERARLAGEEEALRQYQQ
notes: HOIL-1L, mouse, NZF domain with tail, residues Pro192-Gln250, point mutant T207D; Point mutation made by PCR on the plasmid of m1; also called phosphomimetic HOIL-1L NZF; T207D HOIL-1L NZF; source: E. coli, autoinduction in N-5052 media, purified; not shown: GST, N-terminal, cleaved
B1 was tested, and the Kd was 10.3 µM.
